Substrate: Nc1ncnc2c1ncn2[C@@H]1O[C@H](COP(=O)(O)OP(=O)(O)OP(=O)(O)O)[C@@H](O)[C@H]1O
Test: NADH-coupled ATPase assay (pyruvate kinase / lactate dehydrogenase), Michaelis-Menten
Format: biochemical, Arabidopsis thaliana
Conditions: no tRNA, 2 μM protein, 0–50 μM ATP, 5 mM MgCl2, pH 7.5, 25°C, BUD32 site

B1: AtKEOPS (wild-type KEOPS dimer, P2K2B2C2) (Arabidopsis thaliana) (protein)
chain: MDCEENVRDESLVLIKQGAEARVFESTFAGRRSIVKERFSKKYRHPILDAKLTLKRLNAEARCMTKARKLGVCTPVLYAVDTLLHSLTLEYIEGVSVKDIFLEFGTNGVVEERLDDVAAQIGAAIAKLHDGGLAHGDLTTSNMLVRSGTNQLVLIDFGLSVTSTLPEDKAVDLYVLERALLSMHSSCGNVMDRILTAYRKSSKQWSATFNKLAQVRQRGRKRTMIG
notes: reconstituted from KAE1-PCC1-6His and BUD32-CGI121-6His expressed in E. coli; SEC ~200 kDa dimer; some N-terminal KAE1 degradation; with tRNA N6-adenosine threonylcarbamoyltransferase KAE1; EKC/KEOPS complex subunit CGI121; EKC/KEOPS complex subunit PCC1
Km: 0.95 ± 0.053 µM
kcat: 0.019 ± 0.00073 s^–1

— PMC11077089, “Molecular basis of A. thaliana KEOPS complex in biosynthesizing tRNA t^6A” (Nucleic Acids Research, 2024)
